Laboratory results reported in EP1169642B1.

Molecular target: purified human complement Factor H (human) (UniProt P08603)
Assay: steady state fluorescence titration of purified human Factor H

Sequence of purified human complement Factor H (human) (P08603 19-1231 limits assumed): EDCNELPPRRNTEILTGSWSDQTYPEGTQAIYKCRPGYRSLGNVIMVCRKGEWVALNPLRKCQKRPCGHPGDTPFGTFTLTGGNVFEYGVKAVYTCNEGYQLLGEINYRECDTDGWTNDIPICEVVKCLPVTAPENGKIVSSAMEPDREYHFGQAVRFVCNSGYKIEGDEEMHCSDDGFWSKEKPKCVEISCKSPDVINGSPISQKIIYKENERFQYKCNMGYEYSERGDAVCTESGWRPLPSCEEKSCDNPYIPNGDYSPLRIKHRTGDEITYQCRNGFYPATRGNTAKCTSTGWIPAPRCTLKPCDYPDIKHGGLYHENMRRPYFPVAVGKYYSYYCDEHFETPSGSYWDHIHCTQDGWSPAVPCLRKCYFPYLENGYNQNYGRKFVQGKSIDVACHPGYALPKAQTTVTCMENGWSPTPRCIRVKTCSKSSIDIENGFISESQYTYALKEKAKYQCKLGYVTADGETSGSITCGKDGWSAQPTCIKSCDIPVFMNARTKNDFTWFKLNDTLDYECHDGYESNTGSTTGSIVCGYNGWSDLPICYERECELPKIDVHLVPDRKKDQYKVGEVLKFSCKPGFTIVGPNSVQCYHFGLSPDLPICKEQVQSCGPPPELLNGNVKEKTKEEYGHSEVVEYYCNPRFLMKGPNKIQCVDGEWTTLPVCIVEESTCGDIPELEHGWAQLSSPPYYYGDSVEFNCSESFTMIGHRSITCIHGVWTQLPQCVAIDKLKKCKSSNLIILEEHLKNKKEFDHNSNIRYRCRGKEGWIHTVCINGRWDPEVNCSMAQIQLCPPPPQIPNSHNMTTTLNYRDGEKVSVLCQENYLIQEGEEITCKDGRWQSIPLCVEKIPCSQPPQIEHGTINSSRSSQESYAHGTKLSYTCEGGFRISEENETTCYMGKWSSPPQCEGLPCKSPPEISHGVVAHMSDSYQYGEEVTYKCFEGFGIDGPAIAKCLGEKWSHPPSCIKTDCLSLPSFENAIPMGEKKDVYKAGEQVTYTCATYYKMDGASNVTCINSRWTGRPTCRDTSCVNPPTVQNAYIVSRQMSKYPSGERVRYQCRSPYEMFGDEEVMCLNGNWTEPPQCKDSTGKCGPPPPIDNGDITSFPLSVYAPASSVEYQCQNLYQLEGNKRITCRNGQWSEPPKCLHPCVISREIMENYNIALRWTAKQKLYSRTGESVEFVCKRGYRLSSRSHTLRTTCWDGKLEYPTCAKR

stoichiometry (OPN:Factor H): 1 molar ratio
Substance: recombinant osteopontin (rOPN) (from UniProt P10451 17-314) (ligand)
